Drawing on a protein production outcome set (Wang et al. 2014), this text covers protein production for 20 sequences.
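Note: failed if final PepcDB status was selected cloned or expressed and not failed if soluble or beyond.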

This data set in a line: label from the status in PepcDB records.
Turning to “MTRAKQIILWASLSAMPLIAQASERSDDEIKALVYQAILERPEIILQAVEQLQQAEEAAQAASAHAALTENRDSLFNDPNAPVLGNPEGDVTVVEFFDYNCPYCRRAMAEVQGLVDADPNVRLVYREWPILGEGSDFAARAALAARQQGKYEAFHWALMGMSGKANETGVLRIAREVGLDTEQLQRDMEAPEVTAHIAQSMALAQKLGFNGTPSFVVEDALVPGFVEQSQLQDAVDRARKAAAK”, the protein production entry is recorded as “failed”.
As to “MSLHPHLNANLEGGVLTLAINRPEAKNALYGELYLWIAKALDEADQNKDVRVVVLRGAEHDFTAGNDMKDFMGFVQNPNAGPAGQVPPFVLLKSAARLSKPLIIAVKGVAIGIGVTILLQADLVFADNTALFQIPFVSLGLSPEGGASQLLVKQAGYHKAAELLFTAKKFNAETALQAGLVNEIVEDAYATAQATAQHLTALPLASLKQTKALMKHDLDQIIECIDHEAEIFMQRVQSPEMLEAVQAFMQKRQPDFSQEGHHHHHH”, the protein production result is given as “not failed”.
For “MKPALHAIDATLPAPPTYTPAGNECALFEHAWKRRVPLLLKGPTGCGKTRFVAHMAARLGLPLFTVSCHDDLTAADLTGRYLLKGGETVWVDGPLTRAVRQGGICYLDEVVEARKDVAVVLHPLADDRRVLPLERTGEELQAPPHFMLVVSYNPGYQSLLKALKPSTRQRFAAIEFGFLAPEQEIAVVAAESGLPSERVAPLVALAGRLRKLKGHDLEEGVSTRLLVYCASLISEGLPVRDAVLAGLIEPLTDDADVKAALIEVAGVVIGLEHHHHHH”, the protein production result is recorded as “not failed”.
The same measure for “MFNNDRLLVQILLLALFGACLWVMAPFWSALVWGAVLAFASWPLMRLLTRWFKGRESLAALVMCLCWMLLVAAPLVWLGFNLADHVRDATALIKDIQVDGLPDPPQWLAGIPLVGERLVGLWTTIDQQGAAFMTTVKPYLGEVGNWLLARSAQIGGGILELTLSIVFAFFFYRDGPRLAAFVLSLLERLIGDRAQYYLDLVAGTVQRVVNGVIGTAAAQALLALIGFLIAGIPGALVLGILTFLFSLIPMGPPLVWLPATAWLVWQGEYGMAIFLGIWGMFVISGVDNVLKPYLISRGGNLPLVIVLLGVFGGLLAFGFIGLFIGPTLLAVAYSLLTDWVGSERARNPR”: “failed”; for “MRRVISIFRKLSAVYCHTGNFAEGIRVCKYALGRFTEMEDKYKCIFTFNMSLYYNYLGEYGKALNAITGFESVIKATYEDRYYKVLLLKADCYYGAERYAESLSIYNKLISITLKDDFNNLCVYYNNMTQVYLRMGKRDMAVNCINTVINNLHNISDDFEALPQIYAELGKSYLMMADNDKSIKYLTIALKLSKDFKYYSVTKDILNELSKIKGNSNKLKLKDEFIILTENMGRSYDSLNHSLVFNIIQYYTRLGDVASINELCEYCKERKVG”: “failed”; for “MAFTKIIFKNPNTGAIKEAPVGFSWTVFFFGFIPALFRADWKWAAIMFLLAMFTFGLSNLVFMFIYNKLYVRDLIGAGFKAQSIASGDLNFASSRIGMEIPRLEAA”: “failed”.
The same measure for “MNVWLLGRGELRRRHDDVLQLERAFLTDRTGLHFVNARSSEDLLALAESRRAEQQWPVLDAEWISPVGTDTCDDLVWQNLESTLDGRPDTFYSTAGFEAGNTLSGTGELAPGEAFLAYRFWRPVRVYAVQLRAFQADFHPGRPVYPFQVARVGVGCSLQAGMSLSYGADASAPGTSCNYRCFCTTEQQTLVFDDPMVGVYLVICLKGFPQQQLTDRLHYAAVSGIRVFGEPISSPALENELSCLISRGFILDGRDAARWLDLRSAQEHAAPMHIPEDEVI”: “not failed”; for “MHQSVIDPQGLIDLKILIVIALCLLFSPHIAKILRLPLSATEIILGAIIAYFGFIGKSENFALLANVGFYYLMFIAGMEVNLRAFFNMDKEIAKKSFFYIFLLYALSSLIVWIFGLSLVFVIIIPVMSVGLLSLLFKDFGKECYWLNIAMIVATLAEVISIVLLTIAGAFLREGTGIIDVAQSILYLNIFLGLCLLGFKMLGVLFWWYPQLKVVLMPWEDKNEKDIRFCMAIFILIIVAMVITKLEIVLGSFIAGSFIATFFDHKKDLEHKLSTFGHGFLIPIFFIHIGSTFDLKMILDYKIVLQAFLLMFVMVGLRILCASVFLKRIGFKNMILFGLSHSMPLTLLIATATLGYSGKVIDEKLYSALILTALFEAIIVMSMIKFLSNSKK”: “failed”; for “MDVLTDQDVQKFRDEGYLVLEGLLSPEECDALRRRMSEIIESMDVPEHCRTQFSTDHDEQLKTQGNADYFITSGDKIRFFFEKGVFDDKGEFVVPKEQSLNKIGHALHAYEPLFKRVTHSPKVQNICKKLELINPVILQSMYIFKQPGIGGEVTPHQDATFLYTQPLGRVMGVWVALEDAMQENGCLWFIPGSHNDGITRRMVRTPKGTFPLTDFIGREKDYDDKLFVPAPVKKGGAVLIHGEVVHRSAANTSDASRHVYTFHIMESENTVWSPENWLQATEELPFPSLYT”: “failed”.
For the sequence “MQKKSQTAQSYHPMIKEFPEFYGPLTCPGQFLALLILEFGLNFAEIQKLKWENFNWNFKYLTIEKAGIKRVLPIREKFAIRVKAINNADELFAKSRQFLYTELKKFTNYSSKEIREQYILHQVKAGKSIYELATLLGLTTITTLEKYYRLEHHHHHH”, the protein production entry was “failed”.
Turning to “MKLWENGTFYQMTAEGEQVSAVLTKNGQIHAVGEVADLKKQYATEIDETIDLEGKVVFPGFVDAHIHLLWYGQALERLNLNQTTTKKEALALEHHHHHH”, the protein production entry is recorded as “not failed”.
On to “MVRRKKLLSGVLLLSGMLCTGRVMAQQWLYKQAAVPIEYRVKDLLGRMTIEEKVGQLCCPLGWEMYTKTGKNEVTVSELYKKKMAEAPVGSFWAVLRADPWTQKTLETGLSPELSAKALNALQKYAVEETRLGIPVLFAEECPHGHMAIGTTVFPTALSAASTWNEGLMLKMGEAIALEARLQGANIGYGPVLDVAREPRWSRMEETFGEDPVLTTIMGVAMMKGMQGKVQNDGKHLYATLKHFAAYGVPESGHNGSRANCGMRQLLSEYLPPFRKAVKEGAGTLMTSYNAIDGVPCTANKELLTDVLRNQWGFKGFVYSDLISIEGIVGMRAAKDNKEAAVKALKAGLDMDLGGNAFGKNLKKAYEEGLITMADLDRAVGNVLRLKFQMGLFENPYVSPELAKKLVHSKEHKELARQVAREGVVLLKNEGVLPLSKHIGHLAVIGPNADEMYNQLGDYTAPQVREEVATVLDGIRAAVSESTRVTYVKGCAVRDTTATDIPAAVAAAQKADAVVLVVGGSSARDFKTKYISTGAATVSEDAKTLPDMDCGEGFDRSSLRLLGDQEKLISAVASTGKPLVVVYIQGRTMNMNLAAEKAQALLTAWYPGEQGGMGIADILFGDYSPAGRLPVSVPRSEGQLPVFYSQGTQRDYVESKGTPLYAFGYGLSYTRFTYSGLELQKGTEMETLQTVACTVTNTGNRDGEEVVQLYIGDKVASVSQPPLLLKAFQRIFLKKGESRQVIFHLKKDDLGIYDSEMNYVVEPGEFKVMVGAASNDIRLEGEFVL”, for which the protein production result was “failed”.
Turning to “MIRFIGNNRRNLITALILYLLTLVPIYVFLFSNGYLNFYGPNLPLFSGKEVEHLLAASIYNPEYGFSVNDGIYFLYLLIFTSLGIYNIIILYKIFLIITFSITFLLLYTMINKAINIFKISRYKSLSLIIGVLFFLLNPLYLEYVAFNFYNLIWGVIIFSYILIKLIDIVVNDKNVTKLDILKSGIALGFSGLMDPRLYIWGSYILILTFIIVIIIKPRLILKLIKYLSLTYISSLPIIAYIYYLFVYPSLITQASTINAITVPAYRPDTYSYIATWSENSLLFNVFAFINSEWTSIVYAPPSILFYPRTQWWFFPHFGNNSLILLPPGIITYIWLASLYIFFIVAALALFDRKRTLASSLLFIPMLLIISLSAGTNVPIKEFVYLLEIDPSKLPIVGGIFATTFAIPYYAEVMALPFASYLSILGTNYLLNRINKEILKKIAVSIIIVLAVFASWQYFNGTLYPSEVTGSFPGNSISLEGYYYPLNPPPQWVHVMNLLSTSRESVRNVKN”, the protein production result is “failed”.
Consider “MPRLTTRALTRCLLATLALLCIALPALAAAPITPLRVMSFNVRVPVDTDGDKRWQARRGAMVSVIKQTHPDVFGTQELVSEQAGYLAAQLPNYRWFGQGRRGDDSDEHMGVFYDTRTLNVVESGNFWLSDTPEVAGSITWGNVLPRMVTWALFERRSDKRRFYLFNTHFPYRDEDEPAREHSARLILSRIAQLPADIPVVLTGDFNSDPDKITYPTLTAVLGDARARAPKRSGPENTFQDFSTHPTRRIDWILFRGLTPTQFTTLDDRPGGVLPSDHYPVLAEFAWPR”, for which the protein production entry is given as “failed”.
Turning to “MSLSPSARRVQGALETRGFGHLKVVELPASTRTAKEAAQAVGAEVGQIVKSLVFVGEKGAYLFLVSGKNRLDLGKATRLVGGPLRQATPEEVRELTGFAIGGVPPVGHNTPLPAYLDEDLLGYPEVWAAGGTPRALFRATPKELLALTGAQVADLKEG”, the protein production entry is “not failed”.
For “MKQFLITGGTGMVGSQLVNKLKNRDVHITILTRSDKQSDDPKISYVNWSKDGWMSQVPDIDVVVNLAGATLNKRWTPSYKQLIMTSRIQSTQSLVDLFSQREHKPEVLFNASAMGYYPPSLYHTYTEKYQTHPFDFLSDVVYQWERFAKRFESFGTRVVLGRFSMILSNDGGALQTMKLPYKFFVGGKLGSGFQWYSWIHINDLVRAILFTIDNPNAKGPFNMAAPIAERQNLFGYTLARVMHRPHETWVPSFLMRLALGEMSTVVLDTQKVLPNKLDALGFTFNYSNLKIAFEDLIDALEHHHHHH”, the protein production result is on record as “failed”.
For “MLSFCPSCNNMLLITSGDSGVYTLACRSCPYEFPIEGIEIYDRKKLPRKEVDDVLGGGWDNVDQTKTQCPNYDTCGGESAYFFQLQIRSADEPMTTFYKCVNCGHRWKEN”, the protein production entry is on record as “failed”.
In the case of “MDDWEDEKIAPLPAKVELKSNWDDEDVDENEIKDSWEDDDDEPAQPPVINPAPEKAPKKAAPKTVEKKGKAVEVPKEAPKEKPLDPIAEKLRQQRLVEEADYRATAELFGVKDDDKNLDMFIPKSESDFLEYAEMISHRIKPYEKSYHYIALLKTIMRLSLTNMKAADVKDVASSITTIANEKLKAEKEAAAGKKKGGKKKQLIVDKANDDLVAGPYDAMDDFDFM”, the protein production result is “failed”.
Take “MKRKYFPFSAILGQEDLKKALLLNAVNPRIGGVLVRGEKGTAKSTAVRALGALLAAARNGSGGEGEVVVTLPLNATEEMVAGGIDFQQTMKEGRRVFQPGLLAKAHKGILYVDEVNLLDDHLVDIVLDAASSGENRVEREGITLSHPSLFVLAGTMNPEEGELRPQLLDRFGLCVEVRGEADPALRVDLMLRREAFDREPEEFSERYRAEEERLGRTIADAQSLLPSVRIPSHLRGFISELCRNSNVAGHRADLVIEQAARANAALRGSREVSVEDVTKVAGFALVHRRRDPVPPPEQKPQEPERQEEQSRDEQSRQEKPEERGDEPQQPQEGDDRRDGNDDSGNEERSQPENRDAAEQQERPDNEGQDELFSIGQSFRVRSIATPKDRKMRRGSGKRSRSRVSQKQGRYTKSTMPRGNNDIALDATLRAAAPFQRHRENPNGMAVVLQNEDIREKIREKRLGNLLIFVVDASGSMGARGRMAASKGAVMSLLLDAYQKRDKLAMVSFRKNEAFVNLPVTSSIELAARMLKEMPVGGRTPFSAGLLKGYEIAQNYLRKEPGGRPLIILVTDGKANRAIGQGKPLDEVFTISEKISREERIRFLVVDTEEPGLVTFGLAKKIAGLLDAWYYRIDDLRADTLVSIVKTMMP”: the protein production entry is recorded as “failed”.
As for “MRKILVVGAGQSGLQLALGLQSHGYEVTLMSNRTADEIRSGRVMSTQCMFDTALGHERDLQLNFWESQAPKIEGLGVSVAAPGSFDPGPSQRAIDWVGKLDGYAQSVDQRVKMAGWMETFAQRGGQLVIHGAAVSDLDYFSRAYDLVLVSAGKGELVSMFGRDASRSPYSEPQRALAVAYVHGLGPRPEHPDYDAVRCNLVPGVGELFVMPTLTTSGRADILFWEGIPGGPLDVFKGVNDPGEHLSLTLELMERFTPWEYARATKVELTDGNGTLAGRYAPTVRNPVGRLPGGGLVLGVADVVVANDPITGQGSNSASKCAAAYLASIVEHGEKEFDETWMRATFDRYWDTAQHVTKWTNAMLGVPPEHVLNLIGAAGALQPVANRFANGFDNPADFENFFYEPEKTEAYLASVAGS”, the entry is “failed”.
